The target in this test is N-terminally GFP-tagged mouse ClC-3c (mouse). The test is described as follows: FRET or BRET; FLIM-FRET (phasor analysis of the donor lifetime) in living SH-SY5Y cells transfected with the IRES construct; GFP on ClC-3 as donor, mCherry on ClC-4 as acceptor; regions of interest at the plasma membrane or intracellular areas of intermediate fluorescence; tauD from cells expressing only the donor. (BRET reads energy transfer from a luciferase to a nearby fluorophore.)
N-terminally GFP-tagged mouse ClC-3c (mouse), sequence (P51791 whole entry): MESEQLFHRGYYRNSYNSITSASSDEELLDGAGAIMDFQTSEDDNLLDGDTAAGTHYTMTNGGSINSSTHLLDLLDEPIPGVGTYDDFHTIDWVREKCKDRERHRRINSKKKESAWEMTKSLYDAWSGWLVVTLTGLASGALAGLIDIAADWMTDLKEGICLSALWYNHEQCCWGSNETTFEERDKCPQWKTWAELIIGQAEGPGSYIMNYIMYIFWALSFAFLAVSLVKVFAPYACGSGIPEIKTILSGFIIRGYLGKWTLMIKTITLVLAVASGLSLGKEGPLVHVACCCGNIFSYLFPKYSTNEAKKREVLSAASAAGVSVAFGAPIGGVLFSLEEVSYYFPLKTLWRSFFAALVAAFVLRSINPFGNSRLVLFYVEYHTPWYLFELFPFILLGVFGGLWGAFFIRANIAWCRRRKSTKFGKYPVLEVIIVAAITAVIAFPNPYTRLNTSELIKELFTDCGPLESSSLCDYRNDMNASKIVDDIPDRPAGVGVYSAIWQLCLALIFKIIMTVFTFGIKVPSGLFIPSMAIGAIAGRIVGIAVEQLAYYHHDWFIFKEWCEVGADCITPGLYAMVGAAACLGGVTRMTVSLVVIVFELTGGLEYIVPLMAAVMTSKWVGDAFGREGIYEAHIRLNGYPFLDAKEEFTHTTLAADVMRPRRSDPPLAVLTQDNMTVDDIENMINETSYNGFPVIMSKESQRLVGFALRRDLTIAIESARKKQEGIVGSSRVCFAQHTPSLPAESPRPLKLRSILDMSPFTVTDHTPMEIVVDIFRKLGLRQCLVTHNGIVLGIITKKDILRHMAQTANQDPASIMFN

Turning to “N-terminally mCherry-tagged human ClC-4 (from UniProt P51793 1-760) (natural protein)”, the donor fluorescence lifetime in the presence of the acceptor (τDA; unquenched donor τD = 2.22ns) amounted to 1.89 ns.

The values are drawn from publication PMC12731782.
